Here are results for 2 molecules from patent CN113388028A (SHENZHEN FUTIAN GEWU ZHIKANG PATHOGEN RES INSTITUTE; …, dated 2021).

In assay [1] the target is S1RBD-his (SARS-CoV-2 S1蛋白RBD与His的融合蛋白) (SARS-CoV-2). Description: BLI (Octet QKe), antibody captured on AHC sensor, S1RBD-His in solution, 1:1 fit. For orientation: In BLI a coated tip is dipped into the sample, and binding shifts an interference pattern.
The target of assay [2] is S1RBD-mFc (SARS-CoV-2 S1蛋白RBD与mFc的融合蛋白) (SARS-CoV-2).
Assay [3] concerns the target T1, MERS-S1 (MERS-CoV, UniProt K9N5Q8 18-725).
T1 construct: domain: S1
Nature of the assay: ELISA.

For assay [4], the target named is T2, SARS-S1 (SARS-CoV, UniProt P59594 14-667).
T2 construct: domain: S1
Description: ELISA. (In general: ELISA stands for enzyme-linked immunosorbent assay.)

B1: 重组抗体8B4 (antibody, V domains shown)
VH: EVQLVQSGAEVKKPGSSVKVSCKASGGTFSSFSISWVRQAPGQGLEWMGRIIPVLGIANYAQEVQGRVTITADKSTSTAYMELSSLRSEDTAVYFCTTDRFVEPATGPFFDYWGQGTLVTVSS
VL: EIVMTQSPATLSVSPGERATLSCRASQSVSSNLAWYQQKPGQAPRLLIYGASTRATGIPARFSGSGSGTEFTLTISSLQSEDFAVYYCQQYSNWLTFGGGTKVEIK
notes: also called 8B4-Biotin
As a reminder, the Kd is a measure of binding affinity in units of concentration. One may read the koff as a measure of how fast the partners let go of each other. Higher therefore signals a short-lived complex. The term kon denotes a measure of how fast the partners come together. Broadly, the IC50 is the concentration needed to halve the response being measured. As to B1, in assay [1], the Kd is 7.7 nM, the koff stood at 0.00157 s⁻¹ and the kon came to 204000 M⁻¹ s⁻¹. The same molecule showed an IC50 in assay [2] of 23.1 nM. Further, the binding result in assay [3] was “no binding”. The binding result in assay [4] was “no binding”.

B2: 重组抗体24G8 (antibody, V domains shown)
VH: EVQLVESGGGLVKPGGSLRLSCAASGFTFSSYSMNWVRQAPGKGLEWVSSISSSSSFIYYADSVKGRFTISRDNAKNSLYLQMNSLRAEDTAVYYCAREVHVDTAMDAYFDYWGQGTLVTVSS
VL: DIQMTQSPSSLSASVGDRVTITCRASQTISSYLNWYQQKPGKAPKLLIFAASSLQSGVPSRFSGSGSGTDFTLTISSLQPEDFATYYCQQSYSNPPLTFGGGTKVEIE
notes: also called 24G8-Biotin
In assay [1], B2 gave a Kd of 1.08 nM, a koff of 0.000264 s⁻¹ and a kon of 244000 M⁻¹ s⁻¹. In assay [2], this molecule showed an IC50 of 11.4 nM.
